Source: patent US20020012942A1, “POLYPEPTIDES WITH A4 INTEGRIN SUBUNIT RELATED ACTIVITY” (Regents of the University of Minnesota, priority 1998, published 2002)
Like-named read-outs stand apart in the source and are kept apart here. Where no end group is shown, it is not given here.

What was measured:
[1] = test system: A375SM human melanoma cells; experiment: Trypan blue exclusion assay; format: cell-based
[2] = test system: A375SM human melanoma cells; experiment: Cell adhesion assay: A375SM melanoma cell adhesion to substrata coated with CS1/OVA; format: cell-based; conditions: A375SM cells on coated substrata
Description: Cell adhesion assays were performed as previously described in Iida et al., J. Cell Biol., 118, 431-444 (1992) with minor modifications. Ligands were diluted in PBS, and 50 μl aliquots were dispersed in triplicate into Immulon-1 polystyrene microtiter wells. The wells were incubated at 37° C. overnight, and nonspecific binding sites on plastic were then blocked by treating the wells with 200 ul of PBS/BSA.
Subconfluent A375SM human melanoma cells which had been radiolabeled overnight with ^3H-thymidine (3HTdR, specific activity 6.7 Ci/mmol; NEN Research Products, Boston, Mass.), were harvested by rinsing with 1 mM EDTA, washed two times with EMEM/BSA (EMEM containing 2 mg/ml BSA and 0.15 mM Hepes, pH 7.2) and adjusted to a concentration of […] in the same medium. Aliquots of 100 ul of the cell suspension were dispensed into the wells and the cells were incubated at 37° C. for 30 min. The assays were terminated by aspirating loosely bound and unbound cells from the wells, washing the wells three times, and solubilizing the bound cells in 0.5 N NaOH containing 1% SDS. Bound radioactivity, determined in a Beckman Model 3801 Liquid Scintillation Counter, was used to calculate the percentage of cells which remained adherent to each substratum. Unless otherwise indicated, the data represent the mean of triplicate determinations. […]

[3] = biological target: MPG/NG2 chondroitin sulfate proteoglycan (human) (UniProt Q6UVK1); experiment: SG1 peptide affinity column with purified MPG/NG2, linear NaCl gradient 15 mM to 1 M
CD44 proteoglycan = CD44 proteoglycan (human, UniProt P16070-12 21-361, limits assumed); experiment: SG1 peptide affinity column with 125I-labeled melanoma cell lysate; pooled eluate immunoprecipitated with anti-CD44
Description: Peptide-affinity chromatography was performed according to the methods described in Iida et al., J. Cell Biol., 118, 431-444 (1992). SG1 was immobilized on CH-Spharose and blocked using standard methods as described in the manufacturer's instruction. (available from Pharmacia). Human melanoma cells were surface radiolabeled with ¹²⁵I using lactoperoxidase and extracted as described in Iida et al., Cancer Res., 55, 2177-2185 (1995). Cells were extracted with 50 mM Tris-HCl (pH 7.3) containing 50 mM β-octylglucoside, 15 mM NaCl, 1 mM Ca²+, 1 mM Mg²+, 1 mM Mn²+, 1 mM PMSF, and 1 mM NEM (extraction buffer) and then centrifuged at 36500 rpm for 1 h at 4° C. The cell lysates were first precleared by incubating with a mock-column, where no peptide was immobilized, and then applied on the SG1 column. The column was extensively washed with the extraction buffer and then bound proteins were subsequently eluted by a linear gradient of sodium chloride (15 mM to 1 M). Each fraction was counted by r-counter and positive fractions were pooled and immunoprecipitated as described below.
In order to study the function of SG1 site in α4β1 integrin, affinity chromatography was performed using immobilized SG1 polypeptide. […] Open circles represent the radioactivity in each fraction and the solid line represents the concentration of NaCl in each fraction. […]

Chain of MPG/NG2 chondroitin sulfate proteoglycan (human) (Q6UVK1 30-2322): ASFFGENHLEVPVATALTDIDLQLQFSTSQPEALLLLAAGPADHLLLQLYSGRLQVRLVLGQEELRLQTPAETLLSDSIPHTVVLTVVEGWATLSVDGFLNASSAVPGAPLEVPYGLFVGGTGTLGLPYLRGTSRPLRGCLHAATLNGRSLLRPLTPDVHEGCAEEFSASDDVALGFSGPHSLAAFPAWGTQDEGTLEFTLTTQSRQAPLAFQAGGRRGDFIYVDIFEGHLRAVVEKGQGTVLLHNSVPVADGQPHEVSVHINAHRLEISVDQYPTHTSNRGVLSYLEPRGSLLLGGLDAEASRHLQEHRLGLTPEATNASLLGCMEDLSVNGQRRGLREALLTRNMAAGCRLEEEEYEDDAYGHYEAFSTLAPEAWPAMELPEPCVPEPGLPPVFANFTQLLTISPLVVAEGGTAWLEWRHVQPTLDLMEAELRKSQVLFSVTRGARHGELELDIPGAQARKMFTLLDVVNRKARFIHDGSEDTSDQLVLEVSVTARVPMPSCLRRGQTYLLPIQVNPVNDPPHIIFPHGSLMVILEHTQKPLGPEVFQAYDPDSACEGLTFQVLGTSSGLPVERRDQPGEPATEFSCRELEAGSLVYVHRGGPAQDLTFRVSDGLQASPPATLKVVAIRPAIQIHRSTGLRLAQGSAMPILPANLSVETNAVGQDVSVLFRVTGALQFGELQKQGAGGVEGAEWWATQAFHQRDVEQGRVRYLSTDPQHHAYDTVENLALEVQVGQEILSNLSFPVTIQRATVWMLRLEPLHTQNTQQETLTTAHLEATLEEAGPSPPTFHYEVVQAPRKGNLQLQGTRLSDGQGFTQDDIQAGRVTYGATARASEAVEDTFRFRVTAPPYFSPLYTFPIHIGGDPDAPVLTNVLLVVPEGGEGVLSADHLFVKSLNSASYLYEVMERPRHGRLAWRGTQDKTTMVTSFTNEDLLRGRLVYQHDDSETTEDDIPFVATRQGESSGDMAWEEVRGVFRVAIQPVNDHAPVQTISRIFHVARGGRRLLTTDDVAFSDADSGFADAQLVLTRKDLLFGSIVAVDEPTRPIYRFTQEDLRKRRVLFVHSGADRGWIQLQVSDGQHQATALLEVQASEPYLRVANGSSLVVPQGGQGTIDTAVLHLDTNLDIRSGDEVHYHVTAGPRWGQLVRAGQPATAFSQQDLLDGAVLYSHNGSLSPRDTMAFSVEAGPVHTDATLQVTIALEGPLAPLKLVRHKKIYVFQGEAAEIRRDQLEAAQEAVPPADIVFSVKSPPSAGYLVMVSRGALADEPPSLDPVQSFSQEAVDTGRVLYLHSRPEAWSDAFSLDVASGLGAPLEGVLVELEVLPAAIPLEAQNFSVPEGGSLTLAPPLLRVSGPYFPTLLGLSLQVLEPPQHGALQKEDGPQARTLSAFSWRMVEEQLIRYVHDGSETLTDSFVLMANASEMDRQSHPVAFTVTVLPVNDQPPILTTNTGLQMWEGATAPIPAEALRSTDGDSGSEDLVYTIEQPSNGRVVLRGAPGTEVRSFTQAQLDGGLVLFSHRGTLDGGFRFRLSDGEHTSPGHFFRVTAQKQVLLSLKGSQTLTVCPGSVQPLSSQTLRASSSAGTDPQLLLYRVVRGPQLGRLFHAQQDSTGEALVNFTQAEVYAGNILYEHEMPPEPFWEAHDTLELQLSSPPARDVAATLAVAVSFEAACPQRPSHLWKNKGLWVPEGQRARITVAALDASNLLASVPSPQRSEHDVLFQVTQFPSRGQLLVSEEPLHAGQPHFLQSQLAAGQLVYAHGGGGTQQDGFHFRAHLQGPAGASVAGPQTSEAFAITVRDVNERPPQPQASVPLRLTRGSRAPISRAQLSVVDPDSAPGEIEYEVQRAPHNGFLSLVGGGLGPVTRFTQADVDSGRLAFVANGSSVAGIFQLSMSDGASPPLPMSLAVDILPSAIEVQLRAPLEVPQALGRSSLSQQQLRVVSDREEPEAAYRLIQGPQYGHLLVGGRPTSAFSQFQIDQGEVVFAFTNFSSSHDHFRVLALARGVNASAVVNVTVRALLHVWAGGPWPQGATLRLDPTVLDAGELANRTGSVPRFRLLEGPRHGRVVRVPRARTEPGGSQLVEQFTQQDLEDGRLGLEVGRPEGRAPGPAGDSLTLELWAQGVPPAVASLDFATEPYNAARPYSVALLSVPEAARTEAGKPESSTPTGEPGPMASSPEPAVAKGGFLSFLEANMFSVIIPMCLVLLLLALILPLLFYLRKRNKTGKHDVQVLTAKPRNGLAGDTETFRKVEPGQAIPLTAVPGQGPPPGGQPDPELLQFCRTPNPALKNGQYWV
Chain of CD44 proteoglycan (P16070 other isoform, or with tags, fused parts or gaps limits assumed): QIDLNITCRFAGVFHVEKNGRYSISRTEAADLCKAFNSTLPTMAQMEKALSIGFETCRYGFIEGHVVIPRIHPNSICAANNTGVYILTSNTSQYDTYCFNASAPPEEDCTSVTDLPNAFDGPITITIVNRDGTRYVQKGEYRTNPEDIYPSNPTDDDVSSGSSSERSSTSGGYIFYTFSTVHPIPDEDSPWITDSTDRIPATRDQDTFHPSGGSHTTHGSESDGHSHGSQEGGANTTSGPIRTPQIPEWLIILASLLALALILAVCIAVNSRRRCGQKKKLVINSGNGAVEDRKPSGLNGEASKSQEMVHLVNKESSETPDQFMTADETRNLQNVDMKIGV

LQQKKEKDIMKKTI [SG1, LQQKKEKDIMKKTI]
Toxic activity on the cells (trypan blue exclusion) [1]: not be due to their toxic activity

DELPQLVTLPHPNLHGPEILDVPST [CS1, reference compound]
Toxic activity on the cells (trypan blue exclusion) ([1]; not shown): not be due to their toxic activity

B1: CS1/OVA: CS1 polypeptide chemically conjugated to ovalbumin using EDC (conjugate)
peptide: DELPQLVTLPHPNLHGPEILDVPST
chain: GSIGAASMEFCFDVFKELKVHHANENIFYCPIAIMSALAMVYLGAKDSTRTQINKVVRFDKLPGFGDSIEAQCGTSVNVHSSLRDILNQITKPNDVYSFSLASRLYAEERYPILPEYLQCVKELYRGGLEPINFQTAADQARELINSWVESQTNGIIRNVLQPSSVDSQTAMVLVNAIVFKGLWEKAFKDEDTQAMPFRVTEQESKPVQMMYQIGLFRVASMASEKMKILELPFASGTMSMLVLLPDEVSGLEQLESIINFEKLTEWTSSNVMEERKIKVYLPRMKMEEKYNLTSVLMAMGITDVFSSSANLSGISSAESLKISQAVHAAHAEINEAGREVVGSAEAGVDAASVSEEFRADHPFLFCIKHIATNAVLFFGRCVSP
Coating concentration that promoted half maximal cell adhesion [2]: 5 µg/mL

B2: SG1 polypeptide (peptide)
peptide: LQQKKEKDIMKKTI
modifications: Immobilized on CH-Sepharose (CH-affinity beads) in the affinity chromatography; the coupling to the support is not carried by the letters.
notes: Synthetic peptide; used as soluble peptide in the adhesion assays; also called L-SG1; polypeptide SG1
NaCl concentration at elution [3]: 0.13 to 0.15 M | binding result (CD44 proteoglycan): no binding
